The target of this experiment is HSA/hEPO (83.5 Kd) (human). The experiment is described as follows: double-antibody sandwich ELISA (R&D Systems EPO kit), against the recombinant human EPO standard. In general terms: An ELISA detects its analyte on a solid surface through an enzyme-linked reagent.

With “anti-EPO antibodies of the EPO ELISA kit from R&D Systems (tool reagent)”, the activity compared with the standard (of the activity of the EPO standard) worked out at 0.1.

Source of the values: patent US20040063635A1.
